Measurements published in the supplement of paper PMC10567573.

B1: ZNF232 (parent)
chain: HSGEKPFICKECGKAYGWCSELIR
B2: FUT8 (parent)
chain: YPSYKVREKIETVKYPTYPEAEK

Variants of: B1
Assay: protein stability index of a GFP-peptide fusion (GPS, HEK-293T) (PSI 1-6); higher = more stable
Settings: c terminus: a fixed tail appended
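Note: lentivirally expressed fusions sorted by FACS into six bins by GFP to DsRed ratio, PSI derived from sequencing read proportions per bin multiplied by bin number.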

Protein stability index: each site, then its substitutions
G13: T 1.65, P 1.65, Y 2.12, E 2.14, R 1.7, H 1.77, S 1.88, Q 1.44, W 1.53, M 1.89, A 2.29, I 1.76, L 1.49, K 1.42, N 2.1, D 1.97, F 1.49, C 2.22, V 2.39
I8: Q 2.02, V 1.58, K 2.09, M 2.38, E 2.22, C 2.46, S 2.28, G 2.01, L 1.75, T 1.23, P 1.81, D 2.07, W 1.69, R 1.44, Y 1.74, F 1.51, N 2.58, H 1.79, A 1.7
K5: C 1.8, T 1.86, L 1.65, D 2.17, M 2.05, W 1.96, F 1.65, P 2.63, G 2.38, E 3.4, N 2.23, A 2.1, R 2.57, H 1.84, S 2.21, V 2.08, I 2.21, Y 1.74, Q 2.12
C9: N 2.09, Y 2.68, A 1.94, E 2.3, G 1.97, W 2.43, K 2.09, M 2.6, V 2.33, F 2.78, H 3.06, L 2.25, D 2.71, I 2.54, Q 2.48, S 1.92, R 2.32, T 2.34, P 2.23
A15: E 1.81, D 1.69, S 2.14, M 1.9, K 1.69, L 1.49, F 1.92, R 2.14, N 1.83, G 1.45, P 2.29, Q 2.11, T 2.05, H 1.89, I 2.34, W 1.75, V 2.01, Y 1.85, C 2.76
H1: F 2.76, C 1.61, T 1.82, W 1.81, Y 2.28, G 2.55, K 2.12, S 2.33, I 2.21, D 2.31, E 2.4, V 1.88, R 2.45, P 2.37, N 2.15, A 1.89, Q 2.32, M 1.16, L 1.9
E11: Y 1.98, N 1.61, P 1.58, W 2.14, L 1.7, H 2.24, T 2.48, C 2.3, F 1.77, G 2.19, I 2.27, R 2.65, M 2.02, D 1.88, V 2.04, K 1.62, S 2.31, A 2.22, Q 1.52
Y16: C 2.5, F 1.6, A 1.58, E 1.75, D 2.16, G 1.93
K10: H 1.75, M 1.96, C 1.7, R 1.76, T 1.66, W 1.84, F 1.9, Q 2.01, S 2.09, E 2.33, A 1.68, P 2.07, L 1.92, G 1.96, Y 1.99, D 1.66, I 2.01, V 1.82, N 1.82
C12: Q 1.88, P 1.81, Y 2.15, V 2.79, M 2.81, N 2.72, F 2.38, W 2.18, E 2.64, A 1.85, D 2.44, T 2.21, R 1.79, L 3.03, I 2.5, H 1.43, S 2.42, G 2.15, K 2.33
E4: W 1.54, Y 1.81, D 1.91, A 1.55, F 1.37, H 2.17, P 2.22, T 1.29, L 2.76, K 1.54, I 1.27, Q 1.53, C 1.9, M 1.46, V 1.05, G 1.71, S 2.52, N 1.95, R 1.6
G3: Y 1.88, H 1.47, V 2, C 2.5, F 2.13, A 1.86, Q 1.97, S 2.14, T 2.07, N 2.07, D 2.32, E 2.29, L 1.57, M 2.49, I 1.87, W 1.86, P 2.22, K 1.99, R 1.61
S2: V 1.84, T 1.76, G 2.12, Q 2.04, D 2.51, H 1.91, W 1.68, F 2.87, Y 1.81, A 1.7, P 2.33, N 2.58, E 2.35, C 2.12, R 1.64, K 1.74, M 2.07, I 2.21, L 2.4
F7: W 2.09, C 1.73, V 1.89, I 2.56, N 2.24, D 2.29, K 2.54, L 2.05, A 2.22, E 2.7, S 2.79, P 2.11, H 2.73, T 2, M 2.1, R 2.12, G 2.52, Y 2.52, Q 2.08
P6: N 2.37, Q 1.35, L 2.2, E 2.37, S 1.98, W 1.69, Y 1.74, A 1.74, G 2.08, D 2.68, M 2.04, I 1.83, C 2.45, R 2.23, T 2.3, H 2.04, K 2.91, V 2.12, F 1.66
K14: L 1.44, Y 1.98, C 2.73, H 1.61, M 1.96, A 2.39, G 2.8, P 1.53, W 2.68, D 2.01, T 2.24, R 1.61, V 1.71, S 1.7, Q 1.87, N 1.67, I 2.04, F 2.02, E 1.61

Variants of: B2
Assay: as above
Settings: c terminus: native

Protein stability index, by site and new letter:
K5: W 2.49, M 4.45
T12: A 3.92, H 3.25
E22: W 2.91, S 4.04, H 4.28
Y1: G 5.08, M 4.7, T 4.92, R 4.58, F 4.75
P19: D 3.66
K9: W 1.99, V 3.23
S3: L 4.7, H 4.39, P 3.35, E 4.18
K23: H 4.15
P16: M 4, W 2.78, H 4.06
E11: H 3.8
R7: V 3.85, A 4.54, F 2.52
A21: E 4.97, Y 3.67
E8: H 4.28, W 2.13, F 2.02, Y 2.28, R 3.74
K14: T 3.61, R 4.27, W 1.68
I10: V 4.46
P2: L 3.84
V6: G 4.18
E20: F 3.39, T 3.87, I 2.88
